Laboratory results reported in US20200024337A1 (H LUNDBECK A S, published 2020).
Read-outs that look alike come from different tables or passages of the source.

Experiments:
[1] = target: T1, …; assay: Pepscan ELISA on a synthesized peptide array (peroxidase conjugate, ABTS, CCD read-out, scale 0 to 3000) [upper panel]
T1 construct: x-axis label of the 2nd bar, upper panel
Experimental: (§1) The binding of antibody to each of the synthesized 20 mer peptides was tested in a Pepscan based ELISA. The linear peptide array covering the entire coding sequence of alpha-synuclein, as well as all peptides with oxidized methionines or nitrosylated tyrosines, were incubated with primary antibody solution (overnight at 4° C.). After washing, the peptide arrays were incubated with a 1/1000 dilution of an antibody peroxidase conjugate (SBA,cat.nr.2010-05) for one hour at 25° C. After washing, the peroxidase substrate 2,2′-azino-di-3-ethylbenzthiazoline sulfonate (ABTS) and 2 μl/ml of 3 percent H₂O₂ were added. After one hour, the color development was measured. The color development was quantified with a charge coupled device (CCD)—camera and an image processing system. […] The results were quantified and stored into the Peplab database. Occasionally a well contains an air-bubble resulting in a false-positive value, the cards are manually inspected and any values caused by an air-bubble are scored as 0.

[2] = target: T2, …; assay: as above
T2 construct: x-axis label of the 3rd bar, upper panel
Experimental: as §1

[3] = target: T3, …; assay: as above
T3 construct: x-axis label of the 4th bar, upper panel; also called alpha-synuclein 20-mer 121-140
Experimental: as §1

[4] = target: T4, alpha-synuclein (human, UniProt P37840 1-140); assay: SPR (Biacore 3000), synuclein ligand format
[5] = target: T4, alpha-synuclein; assay: SPR (Biacore 3000), IgG captured by anti-human IgG on CM5 chip, synuclein as analyte
[6] = target: T4, alpha-synuclein; assay: as above; remark: listed apart in the source

Row | Binder | KD improvement [4] | KD improvement [5] | KD improvement [6] | other results
1 | mouse 2E6 (antibody, V domains shown, also called m2E6) VH: QVQLQQPGAELVKPGASVKLSCTASGYTFTSYWMHWMKQRPGRGLEWIGRIDPNSGTTKYNVNFKTKATLTVDKPSSTAYMHLSSLTSEDSAVYYCARLGHYGNLYAMDYWGQGTSVT VL: QIVLTQSPAIMSASPGEKVTMTCSASSSVSYMHWYQQKSGTSPKRWIYDTSKLASGVPTRFSGSGSGTSYSLTISSMDTEDAATYYCQQWSSNPPTFGAGTKLELK |  |  |  | binding result [1]: binds; binding result [2]: binds; binding result [3]: binds
2 | chimeric 2E6 (antibody, V domains shown, also called ch2E6; Ch2E6) VH: QVQLQQPGAELVKPGASVKLSCTASGYTFTSYWMHWMKQRPGRGLEWIGRIDPNSGTTKYNVNFKTKATLTVDKPSSTAYMHLSSLTSEDSAVYYCARLGHYGNLYAMDYWGQGTSVT VL: QIVLTQSPAIMSASPGEKVTMTCSASSSVSYMHWYQQKSGTSPKRWIYDTSKLASGVPTRFSGSGSGTSYSLTISSMDTEDAATYYCQQWSSNPPTFGAGTKLELK | 1 fold (Ch2E6 = 1) | 1 fold (Ch2E6 = 1) | 1 fold (Ch2E6 = 1) | 
3 | 2E6-HLD-1 (antibody, V domains shown, Humanized 2E6; also called h2E6-HLD-1; H2E6-HLD-1) VH: QVQLVQSGAEVKKPGASVKVSCKASGYTFTSYWMHWMRQAPGQGLEWIGRIDPNSGTTKYNVNFKTRATLTVDKSTSTAYMELSSLRSEDTAVYYCARLGHYGNLYAMDYWGQGTLVT VL: EIVLTQSPATLSLSPGERATLSCSASSSVSYMHWYQQKPGQAPRRWIYDTSKLASGVPARFSGSGSGTDYTLTISSLEPEDFAVYYCQQWSSNPPTFGQGTKLEIKR | 2 fold (Ch2E6 = 1) | 2.5 fold (Ch2E6 = 1) | 2.5 fold (Ch2E6 = 1) | 
4 | 8D9 (antibody, V domains shown) VH: QVQLVQSGAEVKKPGASVKVSCKASGYTFTSYWMHWMRQAPGQGLEWIGRIDPNSGTTKYNVNFKTRATLTVDKSTSTAYMELSSLRSEDTAVYYCARLGHYGNLYAKDYWGQGTLVT VL: EIVLTQSPATLSLSPGERATLSCSASSSVSYIHWYQQKPGQAPRRWIYDTSKLASGVPARFSGSGSGTDYTLTISSLEPEDFAVYYCQQWSSNPPTFGQGTKLEIK |  |  | 8.7 fold (Ch2E6 = 1) | 
5 | 7A10 (antibody, V domains shown, also called 2E6_7A10; 2E6-HLD1-7A10) VH: QVQLVQSGAEVKKPGASVKVSCKASGYTFTSYWMHWMRQAPGQGLEWIGRIDPNSGTTKYNVNFKTRATLTVDKSTSTAYMELSSLRSEDTAVYYCARLGHYGNLYAKDYWGQGTLVT VL: EIVLTQSPATLSLSPGERATLSCSASSSVSYIHWYQQKPGQAPRRWIYDTSKLASGVPARFSGSGSGTDYTLTISSLEPEDFAVYYCQQWSSNPPTFGQGTKLEIK |  |  | 10.3 fold (Ch2E6 = 1) | Ka [6]: 1.81e+08 M⁻¹; Kd [6]: 5.52 nM; koff [6]: 0.000285 s⁻¹; kon [6]: 51700 M⁻¹ s⁻¹
6 | 2E6-HLD-3 (antibody, V domains shown, Humanized 2E6; also called h2E6-HLD-3; H2E6-HLD-3) VH: QVQLVQSGAEVKKPGASVKVSCKASGYTFTSYWMHWMRQAPGQGLEWIGRIDPNSGTTKYNVNFKTRVTLTVDKSTSTAYMELSSLRSEDTAVYYCARLGHYGNLYAMDYWGQGTLVT VL: EIVLTQSPATLSLSPGERATLSCSASSSVSYMHWYQQKPGQAPRRWIYDTSKLASGVPARFSGSGSGTDYTLTISSLEPEDFAVYYCQQWSSNPPTFGQGTKLEIKR | 1 fold (Ch2E6 = 1) |  |  | Kd [4]: 5.32 nM
7 | 2E6-HLD-2 (antibody, V domains shown, Humanized 2E6; also called h2E6-HLD-2; H2E6-HLD-2) VH: QVQLVQSGAEVKKPGASVKVSCKASGYTFTSYWMHWVRQAPGQGLEWIGRIDPNSGTTKYNVNFKTRATLTVDKSTSTAYMELSSLRSEDTAVYYCARLGHYGNLYAMDYWGQGTLVT VL: EIVLTQSPATLSLSPGERATLSCSASSSVSYMHWYQQKPGQAPRRWIYDTSKLASGVPARFSGSGSGTDYTLTISSLEPEDFAVYYCQQWSSNPPTFGQGTKLEIKR | 1 fold (Ch2E6 = 1) |  |  | 
8 | HDL1-3 (antibody, V domains shown, also called combination 3: 7A10 light chain+9C12 heavy chain) VH: QVQLVQSGAEVKKPGASVKVSCKASGYTFTSYWMHWMRQAPGQGLEWIGRIDPNSGTTKYNVNIKTRATLTVDKSTSTAYMELSSLRSEDTAVYYCARLGHYGNLYAMDYWGQGTLVT VL: EIVLTQSPATLSLSPGERATLSCSASSSVSYIHWYQQKPGQAPRRWIYDTSKLASGVPARFSGSGSGTDYTLTISSLEPEDFAVYYCQQWSSNPPTFGQGTKLEIK |  | 45 fold (Ch2E6 = 1) |  | Ka [5]: 7.94e+08 M⁻¹; Kd [5]: 1.26 nM; koff [5]: 0.000126 s⁻¹; kon [5]: 99900 M⁻¹ s⁻¹
9 | 7C4 (antibody, V domains shown) VH: QVQLVQSGAEVKKPGASVKVSCKASGYTFTRYWMHWMRQAPGQGPEWIGRIDPNSGTTKYNVNFKTRATLTVDKSTSTAYMELSSLRSEDTAVYYCARLGHYGNLYAMDYWGQGTLVT VL: EIVLTQSPATLSLSPGERATLSCSASSSVSFMHWYQQKPGQAPRRWIYDTSKLASGVPARFSGSGSGTDYTLTISSLEPEDFAVYYCQQWSSNPPTFGQGTKLEIK |  |  | 7 fold (Ch2E6 = 1) | 
10 | 9C12 (antibody, V domains shown) VH: QVQLVQSGAEVKKPGASVKVSCKASGYTFTSYWMHWMRQAPGQGLEWIGRIDPNSGTTKYNVNIKTRATLTVDKSTSTAYMELSSLRSEDTAVYYCARLGHYGNLYAMDYWGQGTLVT VL: EIVLTQSPATLSLSPGERATLSCSASSSVSYMHWYQQKPGQAPRRLIYDTSKLASGVPARFSGSGSGTDYTLTISSLEPEDFAVYYCQQWSSNPPTFGQGTKLEIK |  |  | 10 fold (Ch2E6 = 1) | 
